For 1 protein, Km results are on record in ChEMBL document CHEMBL2073968, “Multidrug resistance protein 4 (MRP4/ABCC4) mediates efflux of bimane-glutathione” (Int J Biochem Cell Biol, 2004).

Substrate in the data set: [H][C@@]12CC=C3C[C@@H](OS(=O)(=O)O)CC[C@]3(C)[C@@]1([H])CC[C@]1(C)C(=O)CC[C@@]21[H]
The data set is described as follows: TP_TRANSPORTER: uptake in membrane vesicles from MRP1-expressing Sf9 cells. It counts as functional, cell membranes, Membrane vesicle.

The Km is the concentration of substrate that gives half-maximal velocity.

B1: Multidrug resistance-associated protein 1 (Homo sapiens) (protein)
chain: MALRGFCSADGSDPLWDWNVTWNTSNPDFTKCFQNTVLVWVPCFYLWACFPFYFLYLSRHDRGYIQMTPLNKTKTALGFLLWIVCWADLFYSFWERSRGIFLAPVFLVSPTLLGITMLLATFLIQLERRKGVQSSGIMLTFWLVALVCALAILRSKIMTALKEDAQVDLFRDITFYVYFSLLLIQLVLSCFSDRSPLFSETIHDPNPCPESSASFLSRITFWWITGLIVRGYRQPLEGSDLWSLNKEDTSEQVVPVLVKNWKKECAKTRKQPVKVVYSSKDPAQPKESSKVDANEEVEALIVKSPQKEWNPSLFKVLYKTFGPYFLMSFFFKAIHDLMMFSGPQILKLLIKFVNDTKAPDWQGYFYTVLLFVTACLQTLVLHQYFHICFVSGMRIKTAVIGAVYRKALVITNSARKSSTVGEIVNLMSVDAQRFMDLATYINMIWSAPLQVILALYLLWLNLGPSVLAGVAVMVLMVPVNAVMAMKTKTYQVAHMKSKDNRIKLMNEILNGIKVLKLYAWELAFKDKVLAIRQEELKVLKKSAYLSAVGTFTWVCTPFLVALCTFAVYVTIDENNILDAQTAFVSLALFNILRFPLNILPMVISSIVQASVSLKRLRIFLSHEELEPDSIERRPVKDGGGTNSITVRNATFTWARSDPPTLNGITFSIPEGALVAVVGQVGCGKSSLLSALLAEMDKVEGHVAIKGSVAYVPQQAWIQNDSLRENILFGCQLEEPYYRSVIQACALLPDLEILPSGDRTEIGEKGVNLSGGQKQRVSLARAVYSNADIYLFDDPLSAVDAHVGKHIFENVIGPKGMLKNKTRILVTHSMSYLPQVDVIIVMSGGKISEMGSYQELLARDGAFAEFLRTYASTEQEQDAEENGVTGVSGPGKEAKQMENGMLVTDSAGKQLQRQLSSSSSYSGDISRHHNSTAELQKAEAKKEETWKLMEADKAQTGQVKLSVYWDYMKAIGLFISFLSIFLFMCNHVSALASNYWLSLWTDDPIVNGTQEHTKVRLSVYGALGISQGIAVFGYSMAVSIGGILASRCLHVDLLHSILRSPMSFFERTPSGNLVNRFSKELDTVDSMIPEVIKMFMGSLFNVIGACIVILLATPIAAIIIPPLGLIYFFVQRFYVASSRQLKRLESVSRSPVYSHFNETLLGVSVIRAFEEQERFIHQSDLKVDENQKAYYPSIVANRWLAVRLECVGNCIVLFAALFAVISRHSLSAGLVGLSVSYSLQVTTYLNWLVRMSSEMETNIVAVERLKEYSETEKEAPWQIQETAPPSSWPQVGRVEFRNYCLRYREDLDFVLRHINVTINGGEKVGIVGRTGAGKSSLTLGLFRINESAEGEIIIDGINIAKIGLHDLRFKITIIPQDPVLFSGSLRMNLDPFSQYSDEEVWTSLELAHLKDFVSALPDKLDHECAEGGENLSVGQRQLVCLARALLRKTKILVLDEATAAVDLETDDLIQSTIRTQFEDCTVLTIAHRLNTIMDYTRVIVLDKGEIQEYGAPSDLLQQRGLFYSMAKDAGLV
Take B1: the Km amounted to 5 µM.
